Values quoted from earlier work, collected in patent US20180147231A1, “METHOD FOR TREATMENT AND PROGNOSIS OF COLORECTAL CANCER” (Oxford University Innovation Limited, priority 2015, published 2018).

T1: IL-22RA1 subunit of the receptor (Homo sapiens, UniProt Q8N6P7)
T1 sequence (Q8N6P7 16-574): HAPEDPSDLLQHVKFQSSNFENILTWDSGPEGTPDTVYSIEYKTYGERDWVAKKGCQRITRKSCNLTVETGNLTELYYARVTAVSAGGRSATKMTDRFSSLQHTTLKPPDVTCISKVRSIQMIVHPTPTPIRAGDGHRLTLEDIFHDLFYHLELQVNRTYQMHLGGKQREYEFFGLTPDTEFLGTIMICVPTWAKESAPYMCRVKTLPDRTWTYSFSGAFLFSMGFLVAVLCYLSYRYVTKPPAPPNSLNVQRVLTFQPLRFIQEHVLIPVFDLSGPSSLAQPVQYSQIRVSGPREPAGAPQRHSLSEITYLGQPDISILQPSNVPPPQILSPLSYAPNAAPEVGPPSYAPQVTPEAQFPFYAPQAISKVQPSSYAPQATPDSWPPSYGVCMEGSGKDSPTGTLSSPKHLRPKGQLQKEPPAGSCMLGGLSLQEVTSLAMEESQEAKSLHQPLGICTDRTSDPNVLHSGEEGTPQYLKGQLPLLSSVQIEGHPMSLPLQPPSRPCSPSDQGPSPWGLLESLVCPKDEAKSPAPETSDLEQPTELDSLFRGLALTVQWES

T2: IL-22R complex (Homo sapiens, UniProt Q08334+Q8N6P7)
T2 sequence (Q8N6P7 16-228 limits assumed): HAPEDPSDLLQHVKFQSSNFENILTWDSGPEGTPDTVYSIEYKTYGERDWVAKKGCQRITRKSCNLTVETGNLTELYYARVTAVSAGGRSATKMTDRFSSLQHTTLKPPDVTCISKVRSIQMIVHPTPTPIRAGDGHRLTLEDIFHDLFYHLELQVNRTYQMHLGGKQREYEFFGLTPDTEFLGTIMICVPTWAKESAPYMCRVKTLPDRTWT
T2 sequence (Q08334 20-220 limits assumed): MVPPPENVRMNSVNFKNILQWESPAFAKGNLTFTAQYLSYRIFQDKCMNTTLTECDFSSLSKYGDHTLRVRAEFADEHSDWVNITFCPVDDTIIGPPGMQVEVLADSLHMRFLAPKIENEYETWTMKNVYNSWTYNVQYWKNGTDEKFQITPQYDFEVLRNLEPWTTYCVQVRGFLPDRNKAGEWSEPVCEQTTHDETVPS

B1: V72A: variant of IL-22 (SEQ ID NO: 5) in which V72 is mutated to A (protein, listed as Homo sapiens)
chain: MAALQKSVSSFLMGTLATSCLLLLALLVQGGAAAPISSHCRLDKSNFQQPYITNRTFMLAKEASLADNNTDARLIGEKLFHGVSMSERCYLMKQVLNFTLEEVLFPQSDRFQPYMQEVVPFLARLSNRLSTCHIEGDDLHIQRNVQKLKDTVKKLGESGEIKAIGELDLLFMSLRNACI
B2: K162A: variant of IL-22 (SEQ ID NO: 5) in which K162 is mutated to alanine (protein, listed as Homo sapiens)
chain: MAALQKSVSSFLMGTLATSCLLLLALLVQGGAAAPISSHCRLDKSNFQQPYITNRTFMLAKEASLADNNTDVRLIGEKLFHGVSMSERCYLMKQVLNFTLEEVLFPQSDRFQPYMQEVVPFLARLSNRLSTCHIEGDDLHIQRNVQKLKDTVKKLGESGEIAAIGELDLLFMSLRNACI
B3: I161A: variant of IL-22 (SEQ ID NO: 5) in which I161 is mutated to alanine (protein, listed as Homo sapiens)
chain: MAALQKSVSSFLMGTLATSCLLLLALLVQGGAAAPISSHCRLDKSNFQQPYITNRTFMLAKEASLADNNTDVRLIGEKLFHGVSMSERCYLMKQVLNFTLEEVLFPQSDRFQPYMQEVVPFLARLSNRLSTCHIEGDDLHIQRNVQKLKDTVKKLGESGEAKAIGELDLLFMSLRNACI
B4: D67A: variant of IL-22 (SEQ ID NO: 5) in which D67 is mutated to alanine (protein, listed as Homo sapiens)
chain: MAALQKSVSSFLMGTLATSCLLLLALLVQGGAAAPISSHCRLDKSNFQQPYITNRTFMLAKEASLAANNTDVRLIGEKLFHGVSMSERCYLMKQVLNFTLEEVLFPQSDRFQPYMQEVVPFLARLSNRLSTCHIEGDDLHIQRNVQKLKDTVKKLGESGEIKAIGELDLLFMSLRNACI
B5: N54G: reduced-function variant of IL-22 (SEQ ID NO: 5) in which N54 is mutated from asparagine to glutamine (protein, listed as Homo sapiens)
chain: MAALQKSVSSFLMGTLATSCLLLLALLVQGGAAAPISSHCRLDKSNFQQPYITGRTFMLAKEASLADNNTDVRLIGEKLFHGVSMSERCYLMKQVLNFTLEEVLFPQSDRFQPYMQEVVPFLARLSNRLSTCHIEGDDLHIQRNVQKLKDTVKKLGESGEIKAIGELDLLFMSLRNACI
B6: E117A: variant of IL-22 (SEQ ID NO: 5) in which E117 is mutated to alanine (protein, listed as Homo sapiens)
chain: MAALQKSVSSFLMGTLATSCLLLLALLVQGGAAAPISSHCRLDKSNFQQPYITNRTFMLAKEASLADNNTDVRLIGEKLFHGVSMSERCYLMKQVLNFTLEEVLFPQSDRFQPYMQAVVPFLARLSNRLSTCHIEGDDLHIQRNVQKLKDTVKKLGESGEIKAIGELDLLFMSLRNACI
B7: N54A: variant of IL-22 (SEQ ID NO: 5) in which N54 is mutated to alanine (protein, listed as Homo sapiens)
chain: MAALQKSVSSFLMGTLATSCLLLLALLVQGGAAAPISSHCRLDKSNFQQPYITARTFMLAKEASLADNNTDVRLIGEKLFHGVSMSERCYLMKQVLNFTLEEVLFPQSDRFQPYMQEVVPFLARLSNRLSTCHIEGDDLHIQRNVQKLKDTVKKLGESGEIKAIGELDLLFMSLRNACI
B8: F121A: variant of IL-22 (SEQ ID NO: 5) in which F121 is mutated to alanine (protein, listed as Homo sapiens)
chain: MAALQKSVSSFLMGTLATSCLLLLALLVQGGAAAPISSHCRLDKSNFQQPYITNRTFMLAKEASLADNNTDVRLIGEKLFHGVSMSERCYLMKQVLNFTLEEVLFPQSDRFQPYMQEVVPALARLSNRLSTCHIEGDDLHIQRNVQKLKDTVKKLGESGEIKAIGELDLLFMSLRNACI
B9: Y51A: variant of IL-22 (SEQ ID NO: 5) in which Y51 is mutated to A (protein, listed as Homo sapiens)
chain: MAALQKSVSSFLMGTLATSCLLLLALLVQGGAAAPISSHCRLDKSNFQQPAITNRTFMLAKEASLADNNTDVRLIGEKLFHGVSMSERCYLMKQVLNFTLEEVLFPQSDRFQPYMQEVVPFLARLSNRLSTCHIEGDDLHIQRNVQKLKDTVKKLGESGEIKAIGELDLLFMSLRNACI
B10: T56A: variant of IL-22 (SEQ ID NO: 5) in which T56 is mutated to alanine (protein, listed as Homo sapiens)
chain: MAALQKSVSSFLMGTLATSCLLLLALLVQGGAAAPISSHCRLDKSNFQQPYITNRAFMLAKEASLADNNTDVRLIGEKLFHGVSMSERCYLMKQVLNFTLEEVLFPQSDRFQPYMQEVVPFLARLSNRLSTCHIEGDDLHIQRNVQKLKDTVKKLGESGEIKAIGELDLLFMSLRNACI
B11: R55A: variant of IL-22 (SEQ ID NO: 5) in which R55 is mutated to alanine (protein, listed as Homo sapiens)
chain: MAALQKSVSSFLMGTLATSCLLLLALLVQGGAAAPISSHCRLDKSNFQQPYITNATFMLAKEASLADNNTDVRLIGEKLFHGVSMSERCYLMKQVLNFTLEEVLFPQSDRFQPYMQEVVPFLARLSNRLSTCHIEGDDLHIQRNVQKLKDTVKKLGESGEIKAIGELDLLFMSLRNACI

Target: T1, IL-22RA1 subunit of the receptor
Conditions: variant of IL-22 (SEQ ID NO: 5) compared with wild type; cited from earlier work

Binding to the IL-22RA1 subunit of the receptor, reduce binding:
B1
B2
B3
B4

Target: T2, IL-22R complex
Conditions: variant of IL-22 (SEQ ID NO: 5) compared with wild type; cited from earlier work

Binding to the IL-22R complex, reduce binding:
B5
B6
B7
B8
B9
B10
B11
